These results are taken from the supplement of paper PMC5998384.

The test system of data set [1] is HeLa Kyoto. Kind of data set: solubility in G1/S (NP-40 vs SDS abundance) (log2 ratio); higher = more soluble. Particulars: cell cycle stage: G1/S.
For data set [2], the system named is HeLa Kyoto. Description: melting temperature (median over replicates), in situ; higher = more thermally stable.
Data set [3] concerns HeLa Kyoto. Kind of data set: solubility change mitosis vs G1/S (difference of NP-40 vs SDS log2 ratios) (log2 ratio difference); higher = more soluble in mitosis.
In data set [4] the test system is HeLa Kyoto. Kind of data set: thermal stability score vs G1/S (z-score of summed log2 fold changes over temperatures); higher = more thermally stable than in G1/S.
Where [5] appears, read: cell cycle stage: early G1 (4.5 h after nocodazole release).
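Wherever melting temperature (median over replicates), in situ is given: HeLa Kyoto cells synchronized by double thymidine or nocodazole block, proteins quantified by TMT10plex mass spectrometry, three independent biological replicates.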
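Wherever solubility change mitosis vs G1/S (difference of NP-40 vs SDS log2 ratios) is given: synchronized HeLa Kyoto cells (double thymidine block for G1/S, nocodazole release for mitosis), protein amounts in NP-40 versus SDS lysates quantified by mass spectrometry, three biological replicates.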
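Wherever solubility in G1/S (NP-40 vs SDS abundance) is given: HeLa Kyoto cells arrested at G1/S by double thymidine block, proteins quantified by TMT10plex mass spectrometry in mild NP-40 versus SDS extracts, three biological replicates.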
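Wherever thermal stability score vs G1/S (z-score of summed log2 fold changes over temperatures) is given: synchronized HeLa Kyoto cells, proteins quantified by TMT10plex mass spectrometry, three biological replicates, mitosis taken 0.5 h after nocodazole release, G1/S directly after double thymidine block.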

As for “MANNDAVLKRLEQKGAEADQIIEYLKQQVSLLKEKAILQATLREEKKLRVENAKLKKEIEELKQELIQAEIQNGVKQIPFPSGTPLHANSMVSENVIQSTAVTTVSSGTKEQIKGGTGDEKKAKEKIEKKGEKKEKKQQSIAGSADSKPIDVSRLDLRIGCIITARKHPDADSLYVEEVDVGEIAPRTVVSGLVNHVPLEQMQNRMVILLCNLKPAKMRGVLSQAMVMCASSPEKIEILAPPNGSVPGDRITFDAFPGEPDKELNPKKKIWEQIQPDLHTNDECVATYKGVPFEVKGKGVCRAQTMSNSGIK [AIMP1]”, the “solubility in G1/S (log2)” value in the data set on HeLa Kyoto [1] is 0.468. Further, the melting temperature with HeLa Kyoto [2] (cell cycle stage: G1/S) amounted to 48.3 °C; with HeLa Kyoto [2] (cell cycle stage: mitosis), 49.1 °C. In addition, in the data set with HeLa Kyoto [3], the “solubility change mitosis (log2)” value worked out at 0.02. The thermal stability score with HeLa Kyoto [4] (setting [5]) is -0.0166; in the data set on HeLa Kyoto [4] (cell cycle stage: mitosis), 1.24.

Take “MEDPTLYIVERPLPGYPDAEAPEPSSAGAQAAEEPSGAGSEELIKSDQVNGVLVLSLLDKIIGAVDQIQLTQAQLEERQAEMEGAVQSIQGELSKLGKAHATTSNTVSKLLEKVRKVSVNVKTVRGSLERQAGQIKKLEVNEAELLRRRNFKVMIYQDEVKLPAKLSISKSLKESEALPEKEGEELGEGERPEEDAAALELSSDEAVEVEEVIEESRAERIKRSGLRRVDDFKKAFSKEKMEKTKVRTRENLEKTRLKTKENLEKTRHTLEKRMNKLGTRLVPAERREKLKTSRDKLRKSFTPDHVVYARSKTAVYKVPPFTFHVKKIREGQVEVLKATEMVEVGADDDEGGAERGEAGDLRRGSSPDVHALLEITEESDAVLVDKSDSD [PTRF]”: the “solubility in G1/S (log2)” value in the data set on HeLa Kyoto [1] is -0.215. In addition, the values for the melting temperature in the data set with HeLa Kyoto [2] (cell cycle stage: G1/S) and with HeLa Kyoto [2] (cell cycle stage: mitosis) were 54.4 °C and 52.4 °C, respectively. In addition, the “solubility change mitosis (log2)” value in the data set with HeLa Kyoto [3] was determined as 0.094. The thermal stability score in the data set with HeLa Kyoto [4] (setting [5]) is -3.64; in the data set on HeLa Kyoto [4] (cell cycle stage: mitosis), -4.73.

On to “MSAIPAEESDQLLIRPLGAGQEVGRSCIILEFKGRKIMLDCGIHPGLEGMDALPYIDLIDPAEIDLLLISHFHLDHCGALPWFLQKTSFKGRTFMTHATKAIYRWLLSDYVKVSNISADDMLYTETDLEESMDKIETINFHEVKEVAGIKFWCYHAGHVLGAAMFMIEIAGVKLLYTGDFSRQEDRHLMAAEIPNIKPDILIIESTYGTHIHEKREEREARFCNTVHDIVNRGGRGLIPVFALGRAQELLLILDEYWQNHPELHDIPIYYASSLAKKCMAVYQTYVNAMNDKIRKQININNPFVFKHISNLKSMDHFDDIGPSVVMASPGMMQSGLSRELFESWCTDKRNGVIIAGYCVEGTLAKHIMSEPEEITTMSGQKLPLKMSVDYISFSAHTDYQQTSEFIRALKPPHVILVHGEQNEMARLKAALIREYEDNDEVHIEVHNPRNTEAVTLNFRGEKLAKVMGFLADKKPEQGQRVSGILVKRNFNYHILSPCDLSNYTDLAMSTVKQTQAIPYTGPFNLLCYQLQKLTGDVEELEIQEKPALKVFKNITVIQEPGMVVLEWLANPSNDMYADTVTTVILEVQSNPKIRKGAVQKVSKKLEMHVYSKRLEIMLQDIFGEDCVSVKDDSILSVTVDGKTANLNLETRTVECEEGSEDDESLREMVELAAQRLYEALTPVH [CPSF3]”, for which the “solubility in G1/S (log2)” value in the data set on HeLa Kyoto [1] is -0.183. In addition, the melting temperature with HeLa Kyoto [2] (cell cycle stage: G1/S) is 51.2 °C; in the data set on HeLa Kyoto [2] (cell cycle stage: mitosis), 50.5 °C. In the data set on HeLa Kyoto [3], the “solubility change mitosis (log2)” value was -0.00173. For the same substance, the values for the thermal stability score in the data set with HeLa Kyoto [4] (setting [5]) and with HeLa Kyoto [4] (cell cycle stage: mitosis) were 0.918 and 1.38, respectively.

For TCF20, in the data set with HeLa Kyoto [1], the “solubility in G1/S (log2)” value was -0.513. The substance further returned a melting temperature in the data set on HeLa Kyoto [2] (cell cycle stage: mitosis) of 51.1 °C. For the same substance, the “solubility change mitosis (log2)” value in the data set with HeLa Kyoto [3] amounted to 0.527. Moreover, the thermal stability score in the data set with HeLa Kyoto [4] (setting [5]) turned out to be 0.72; with HeLa Kyoto [4] (cell cycle stage: mitosis), 1.03.

Consider “MKQDASRNAAYTVDCEDYVHVVEFNPFENGDSGNLIAYGGNNYVVIGTCTFQEEEADVEGIQYKTLRTFHHGVRVDGIAWSPETRLDSLPPVIKFCTSAADMKIRLFTSDLQDKNEYKVLEGHTDFINGLVFDPKEGQEIASVSDDHTCRIWNLEGVQTAHFVLHSPGMSVCWHPEETFKLMVAEKNGTIRFYDLLAQQAILSLESEQVPLMSAHWCLKNTFKVGAVAGNDWLIWDITRSSYPQNKRPVHMDRACLFRWSTISENLFATTGYPGKMASQFQIHHLGHPQPILMGSVAVGSGLSWHRTLPLCVIGGDHKLLFWVTEV [NUP37]”, for which, in the data set on HeLa Kyoto [1], the “solubility in G1/S (log2)” value is -0.294. For the same substance, the melting temperature in the data set on HeLa Kyoto [2] (cell cycle stage: G1/S) was 53.3 °C; in the data set with HeLa Kyoto [2] (cell cycle stage: mitosis), 51 °C. Also, the “solubility change mitosis (log2)” value in the data set on HeLa Kyoto [3] worked out at 0.135. Moreover, the thermal stability score in the data set with HeLa Kyoto [4] (setting [5]) is -3.41; with HeLa Kyoto [4] (cell cycle stage: mitosis), -4.8.

Take “MPKVKRSRKAPPDGWELIEPTLDELDQKMREAETEPHEGKRKVESLWPIFRIHHQKTRYIFDLFYKRKAISRELYEYCIKEGYADKNLIAKWKKQGYENLCCLRCIQTRDTNFGTNCICRVPKSKLEVGRIIECTHCGCRGCSG [BUD31]”: the “solubility in G1/S (log2)” value in the data set on HeLa Kyoto [1] was -0.0954. The melting temperature in the data set on HeLa Kyoto [2] (cell cycle stage: G1/S) is 51.1 °C; in the data set with HeLa Kyoto [2] (cell cycle stage: mitosis), 50.9 °C. The “solubility change mitosis (log2)” value in the data set on HeLa Kyoto [3] was found to be 0.184. The thermal stability score is 1.19 in the data set on HeLa Kyoto [4] (setting [5]) and 0.411 in the data set on HeLa Kyoto [4] (cell cycle stage: mitosis).
